The record followed here is patent US20110158985A1.

The assay concerns the target F protein of RSV (Long strain) (RSV (Long strain)) (UniProt P12568). Briefly: cell-based or functional assay.

Sequence of F protein of RSV (Long strain) (RSV (Long strain)) (P12568 26-574): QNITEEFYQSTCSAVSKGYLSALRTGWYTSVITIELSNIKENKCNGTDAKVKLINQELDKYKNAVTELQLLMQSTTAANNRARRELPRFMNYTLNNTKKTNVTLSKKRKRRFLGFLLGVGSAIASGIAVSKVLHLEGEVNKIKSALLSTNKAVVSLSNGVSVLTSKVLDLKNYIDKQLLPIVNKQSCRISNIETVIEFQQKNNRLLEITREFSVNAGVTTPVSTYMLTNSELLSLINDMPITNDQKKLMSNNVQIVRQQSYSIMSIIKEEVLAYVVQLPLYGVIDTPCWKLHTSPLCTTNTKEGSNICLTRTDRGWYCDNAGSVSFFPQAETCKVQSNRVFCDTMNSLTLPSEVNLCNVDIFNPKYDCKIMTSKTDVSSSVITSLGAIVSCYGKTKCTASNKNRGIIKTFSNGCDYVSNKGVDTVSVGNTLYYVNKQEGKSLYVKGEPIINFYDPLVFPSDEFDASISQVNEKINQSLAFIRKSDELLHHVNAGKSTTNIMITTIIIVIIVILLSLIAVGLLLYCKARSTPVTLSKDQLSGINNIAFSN
Sequence of palivizumab F(ab')2 (VH): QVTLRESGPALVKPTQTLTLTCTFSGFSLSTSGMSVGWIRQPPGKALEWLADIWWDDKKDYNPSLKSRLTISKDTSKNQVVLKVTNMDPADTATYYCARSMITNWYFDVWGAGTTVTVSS
Sequence of palivizumab F(ab')2 (VL): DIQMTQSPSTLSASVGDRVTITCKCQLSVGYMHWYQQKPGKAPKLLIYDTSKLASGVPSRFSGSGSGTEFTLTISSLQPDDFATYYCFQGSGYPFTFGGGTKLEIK

For the substance palivizumab F(ab')2, the Microneutralization IC50 was 1.4 nM.
